Reference: patent publication US20140112930A1 (published 2014)
One block for each binder: values may come before it.

Legend:
[1] = molecular target: T1, Biotin-hBA2 (human, biotinylated (sites not given)); experiment: blocking ELISA, biotin-hBA2 to hTie-2; NB = no blocking observed at 5 nM concentration
T1 construct: hBA2 consists of two dimers; also called biotinylated hBA2; human bow-Ang2
Procedure: The plate was then blocked with PBS (Irvine Scientific, Santa Ana, Calif.) containing 0.5% BSA (Sigma-Aldrich Corp., St. Louis, Mo.) for one hour at room temperature. […] Human, mouse or monkey Ang-2FD protein conjugated to human IgG (Ang-2FD-hFc) were added to final concentrations of 2 nM, 8 nM, or 2 nM respectively and incubated for one hour at room temperature. The antibody/Ang-2FD-Fc mixture was then added to the plate containing hTie-2-mFc and incubated for one hour at room temperature. Detection of Ang-2FD-hFc bound to hTie-2-mFc protein was determined with Horse-Radish Peroxidase (HRP) conjugated to a-human IgG antibody (Jackson Immuno Research Lab, West Grove, Pa.) and developed by standard colorimetric response using tetramethylbenzidine (TMB) substrate (BD Biosciences, San Jose, Calif.). Absorbance was read at OD₄₅₀ for 0.1 sec.
For this experiment, human Tie-2 conjugated to a histidine tag (hTie-2-His; SEQ ID NO:526) was used in a similar fashion to the hTie-2-mFc described above. Antibody concentrations from 5 nM were serially diluted three-fold. […] An average IC₅₀ value for each antibody was calculated based on two separate experiments.

[2] = molecular target: T2, Mouse Ang-2FD-hFc (mouse (Mus musculus)); experiment: blocking ELISA, 16.67 nM antibody, Ang-2FD-hFc to coated hTie-2-mFc
T2 construct: also called dimeric mouse Ang-2FD
T2 sequence (chain, as listed by the source limits assumed): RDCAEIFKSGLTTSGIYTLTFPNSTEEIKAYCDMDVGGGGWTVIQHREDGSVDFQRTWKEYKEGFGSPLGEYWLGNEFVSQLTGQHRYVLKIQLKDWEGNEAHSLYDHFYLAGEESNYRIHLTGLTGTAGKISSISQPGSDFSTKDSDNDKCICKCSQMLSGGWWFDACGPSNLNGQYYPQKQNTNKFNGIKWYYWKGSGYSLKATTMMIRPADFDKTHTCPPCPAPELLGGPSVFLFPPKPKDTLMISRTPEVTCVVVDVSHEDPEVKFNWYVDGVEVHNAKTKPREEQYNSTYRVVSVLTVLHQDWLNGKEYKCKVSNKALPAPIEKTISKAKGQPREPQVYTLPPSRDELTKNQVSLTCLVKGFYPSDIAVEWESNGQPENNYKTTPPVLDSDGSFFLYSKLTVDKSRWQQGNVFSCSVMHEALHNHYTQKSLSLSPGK

[3] = molecular target: T3, Human Ang-2FD-hFc (human); experiment: as above
T3 construct: also called dimeric human Ang-2FD; human Ang-2FD protein conjugated to human IgG
T3 sequence (chain, as listed by the source limits assumed): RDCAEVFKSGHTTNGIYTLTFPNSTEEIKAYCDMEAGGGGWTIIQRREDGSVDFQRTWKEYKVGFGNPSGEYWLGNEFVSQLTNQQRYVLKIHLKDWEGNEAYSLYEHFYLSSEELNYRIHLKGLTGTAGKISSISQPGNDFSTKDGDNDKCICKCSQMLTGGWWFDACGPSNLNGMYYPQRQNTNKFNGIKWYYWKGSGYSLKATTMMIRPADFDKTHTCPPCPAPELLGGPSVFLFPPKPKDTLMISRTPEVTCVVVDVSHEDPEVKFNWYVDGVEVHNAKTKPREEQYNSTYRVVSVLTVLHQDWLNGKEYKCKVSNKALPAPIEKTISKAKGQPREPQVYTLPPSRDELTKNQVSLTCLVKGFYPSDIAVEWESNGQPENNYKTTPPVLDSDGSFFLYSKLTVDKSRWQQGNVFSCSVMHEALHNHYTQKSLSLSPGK

[4] = molecular target: T4, Full-length wild-type human Ang-1 (hAng-1-WT) (human, UniProt Q15389 20-498, limits assumed); experiment: SPR, captured Ab, 37°C
T4 construct: also called recombinant human Ang-1 (R&D Systems)
T4 sequence (looked up): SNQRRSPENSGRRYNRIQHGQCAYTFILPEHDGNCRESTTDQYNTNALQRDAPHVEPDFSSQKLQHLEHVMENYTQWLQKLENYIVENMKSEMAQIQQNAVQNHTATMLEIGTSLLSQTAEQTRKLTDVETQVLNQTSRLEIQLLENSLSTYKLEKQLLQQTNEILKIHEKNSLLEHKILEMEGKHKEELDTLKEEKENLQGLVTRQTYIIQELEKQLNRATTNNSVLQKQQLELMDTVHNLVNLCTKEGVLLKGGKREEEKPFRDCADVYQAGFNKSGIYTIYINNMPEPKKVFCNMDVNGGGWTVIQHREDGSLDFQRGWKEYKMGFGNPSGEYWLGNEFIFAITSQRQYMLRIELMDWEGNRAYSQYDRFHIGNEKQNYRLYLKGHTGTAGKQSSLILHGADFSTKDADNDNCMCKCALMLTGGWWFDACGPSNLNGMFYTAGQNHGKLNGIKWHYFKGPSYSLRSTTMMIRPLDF
Procedure: (§1) Each selected antibody or control construct was captured at a flow rate of 40 μL/min for 1 minute on a goat anti-human IgG polyclonal antibody surface created through direct chemical coupling to a BIACORE™ chip to form a captured antibody surface.

[5] = molecular target: T5, Monomeric hAng-2FD (human, UniProt O15123 282-496); experiment: SPR, captured Ab, 37°C
T5 construct: also called fibrinogen-like domain of human Ang2; Human Ang-2FD
T5 sequence: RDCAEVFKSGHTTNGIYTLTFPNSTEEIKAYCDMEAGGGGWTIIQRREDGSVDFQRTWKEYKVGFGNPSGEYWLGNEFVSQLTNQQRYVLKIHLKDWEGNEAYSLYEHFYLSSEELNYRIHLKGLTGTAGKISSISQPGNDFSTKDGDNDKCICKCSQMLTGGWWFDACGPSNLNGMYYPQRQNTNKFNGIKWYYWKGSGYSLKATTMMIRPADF
Procedure: as §1

[6] = molecular target: T6, wild-type human Ang-2 (hAng-2-WT) (human, UniProt O15123 19-496); experiment: SPR, captured Ab, 37°C
T6 construct: called full-length wild-type; also called Full-length wild-type human Ang-2
T6 sequence: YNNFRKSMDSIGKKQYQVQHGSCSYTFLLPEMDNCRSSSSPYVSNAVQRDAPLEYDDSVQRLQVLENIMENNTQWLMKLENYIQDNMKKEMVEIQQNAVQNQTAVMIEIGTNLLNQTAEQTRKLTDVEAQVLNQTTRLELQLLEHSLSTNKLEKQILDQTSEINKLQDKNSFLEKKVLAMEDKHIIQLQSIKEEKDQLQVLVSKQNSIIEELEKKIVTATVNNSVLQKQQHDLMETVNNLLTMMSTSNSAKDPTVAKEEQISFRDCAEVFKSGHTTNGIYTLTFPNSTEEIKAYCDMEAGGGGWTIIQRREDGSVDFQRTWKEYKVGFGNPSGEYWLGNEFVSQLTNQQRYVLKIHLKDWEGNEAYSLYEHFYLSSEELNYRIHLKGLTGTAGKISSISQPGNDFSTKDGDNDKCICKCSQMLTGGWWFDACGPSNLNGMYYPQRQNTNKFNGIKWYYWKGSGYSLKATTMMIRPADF
Procedure: as §1

[7] = molecular target: T4, Full-length wild-type human Ang-1 …; experiment: SPR, captured Ab, 25°C
Procedure: as §1

[8] = molecular target: T5, Monomeric hAng-2FD; experiment: SPR, captured Ab, 25°C
Procedure: as §1

[9] = molecular target: T6, wild-type human Ang-2 (hAng-2-WT); experiment: SPR, captured Ab, 25°C
Procedure: as §1

[10] = molecular target: T7, Dimeric Monkey Ang-2FD conjugated to human IgG1 (monkey (Macca fascicularis); human); experiment: SPR, captured Ab, 25°C
T7 construct: also called Monkey Ang-2FD-hFc
T7 sequence (chain, as listed by the source limits assumed): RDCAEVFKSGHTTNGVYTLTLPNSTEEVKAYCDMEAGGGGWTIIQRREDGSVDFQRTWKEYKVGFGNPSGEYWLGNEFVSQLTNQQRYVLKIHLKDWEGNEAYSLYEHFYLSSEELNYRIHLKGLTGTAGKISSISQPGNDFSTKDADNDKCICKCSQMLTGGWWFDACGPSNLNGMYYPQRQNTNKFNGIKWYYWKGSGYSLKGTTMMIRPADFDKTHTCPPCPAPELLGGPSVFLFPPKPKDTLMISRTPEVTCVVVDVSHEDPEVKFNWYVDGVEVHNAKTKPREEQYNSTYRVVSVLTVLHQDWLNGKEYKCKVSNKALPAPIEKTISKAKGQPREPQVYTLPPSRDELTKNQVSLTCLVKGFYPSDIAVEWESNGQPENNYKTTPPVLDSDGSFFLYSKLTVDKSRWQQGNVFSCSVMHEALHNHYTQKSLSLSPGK
Procedure: (§2) Each selected antibody or control construct was captured at a flow rate of 40 μL/min for 1 minute on a goat anti-human kappa polyclonal antibody surface created through direct chemical coupling to a BIACORE™ chip to form a captured antibody surface.

[11] = molecular target: T8, Dimeric Human Ang-2FD-mFc (human, UniProt O15123 282-496); experiment: SPR, captured Ab, 25°C
T8 construct: also called hAng-2FD-mFc; hAng2-FD-mFc; not shown: mouse Fc (mFc)
T8 sequence: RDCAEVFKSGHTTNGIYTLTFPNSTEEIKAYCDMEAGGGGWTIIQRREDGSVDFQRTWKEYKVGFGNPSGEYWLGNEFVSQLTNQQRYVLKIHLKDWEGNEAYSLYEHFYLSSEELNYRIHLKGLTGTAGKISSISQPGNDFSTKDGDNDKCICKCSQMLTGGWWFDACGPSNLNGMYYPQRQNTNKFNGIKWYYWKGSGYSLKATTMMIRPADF
Procedure: as §2

[12] = molecular target: T9, Dimeric Mouse Ang-2FD conjugated to human IgG1 (mouse (Mus musculus); human); experiment: SPR, captured Ab, 25°C
T9 construct: also called Mouse Ang-2FD-hFc
Procedure: as §2

[13] = molecular target: T10, human bow-Ang-2 tetrameric construct (hBA2) (human); experiment: SPR, captured Ab
T10 construct: also called human BA2; hBA2-hIgG1
T10 sequence (chain, as listed by the source limits assumed): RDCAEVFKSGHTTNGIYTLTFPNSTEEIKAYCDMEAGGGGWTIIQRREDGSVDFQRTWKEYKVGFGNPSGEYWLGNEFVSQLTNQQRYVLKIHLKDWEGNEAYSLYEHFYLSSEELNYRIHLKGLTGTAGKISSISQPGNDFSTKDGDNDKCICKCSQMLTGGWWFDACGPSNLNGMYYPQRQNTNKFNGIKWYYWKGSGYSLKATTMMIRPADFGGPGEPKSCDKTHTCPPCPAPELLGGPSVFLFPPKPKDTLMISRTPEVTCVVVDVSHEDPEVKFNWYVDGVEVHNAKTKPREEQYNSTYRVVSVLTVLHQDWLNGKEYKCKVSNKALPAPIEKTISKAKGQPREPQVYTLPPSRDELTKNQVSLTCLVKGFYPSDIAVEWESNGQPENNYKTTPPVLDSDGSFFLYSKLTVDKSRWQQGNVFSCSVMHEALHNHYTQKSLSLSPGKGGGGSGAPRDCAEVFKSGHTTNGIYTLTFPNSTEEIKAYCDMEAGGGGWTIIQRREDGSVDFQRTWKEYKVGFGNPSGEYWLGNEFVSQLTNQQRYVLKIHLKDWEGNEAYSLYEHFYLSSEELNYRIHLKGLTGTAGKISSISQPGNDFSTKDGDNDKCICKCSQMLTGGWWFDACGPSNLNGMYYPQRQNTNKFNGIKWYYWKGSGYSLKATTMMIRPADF

[14] = molecular target: T7, Dimeric Monkey Ang-2FD conjugated to …; experiment: SPR, captured Ab, 37°C
Procedure: as §2

[15] = molecular target: T8, Dimeric Human Ang-2FD-mFc; experiment: SPR, captured Ab, 37°C
Procedure: as §2

[16] = molecular target: T9, Dimeric Mouse Ang-2FD conjugated to …; experiment: SPR, captured Ab, 37°C
Procedure: as §2

[17] = molecular target: T5, Monomeric hAng-2FD; experiment: SPR, captured Ab
[18] = molecular target: T6, wild-type human Ang-2 (hAng-2-WT); experiment: SPR, captured Ab
[19] = molecular target: T11, Dimeric Human Ang-2FD conjugated to human IgG1 (human); experiment: SPR, captured Ab, RT
T11 construct: also called Human Ang-2FD-hFc; hAng-2FD-hFc
Outline: (§3)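 Antibody captured on amine-coupled goat anti-mouse IgG, anti-human κ or anti-human IgG polyclonal surfaces on a CM5 chip; antigen binding and dissociation followed in real time at room temperature. KD and complex dissociation half-life derived by kinetic analysis.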

[20] = molecular target: T7, Dimeric Monkey Ang-2FD conjugated to …; experiment: SPR, captured Ab, RT
Outline: as §3

[21] = molecular target: T9, Dimeric Mouse Ang-2FD conjugated to …; experiment: SPR, captured Ab, RT
Outline: as §3

IC50 [1]: > 5 nM
Percent Blocking of Ang-2FD Binding to Tie-2 [2]: 63.6%
Percent Blocking of Ang-2FD Binding to Tie-2 [3]: 73.9%
B1: H1H693P (antibody, human IgG1, V domains shown)
VH: EVQLVESGGGLVQPGESLRLSCAASGFTFSSYAMSWVRQGPGKGLEWVSSISGSGGTTYYADSVEGRFTISRDNSKNTLYLHMNSLRAEDTAVYYCAKDFLDYSTYLAFDLWGQGTMVTVSS
VL: DIQMTQSPSSVSASVGDRVTITCRASQGISSWLAWYQQKPGKAPKLLIYAASSLQSGVPSRFSGSGSGTDFTLTISSLQPEDFATYYCQQANSFPRTFGQGTKVEIK
notes: Human IgG1

Kd [4]: 0.0312 nM
T ½ [4]: 3.7 h
Kd [5]: 1.42 nM
T ½ [5]: 0.35 h
Kd [6]: 0.347 nM
T ½ [6]: 0.8 h
Kd [7]: 0.093 nM
T ½ [7]: 5.05 h
Kd [8]: 0.424 nM
T ½ [8]: 1.55 h
Kd [9]: 0.0335 nM
T ½ [9]: 7.5 h
Kd [10]: 0.244 nM
T1/2 [10]: 0.4 h
Kd [11]: 0.116 nM
T1/2 [11]: 0.383 h
Kd [12]: 0.385 nM
T1/2 [12]: 0.55 h
Kd [13]: 0.0172 nM
T1/2 [13]: 7.37 h
Kd [14]: 0.32 nM
T1/2 [14]: 0.183 h
Kd [15]: 0.105 nM
T1/2 [15]: 0.3 h
Kd [16]: 0.215 nM
T1/2 [16]: 0.433 h
Kd [17]: 1.02 nM
T1/2 [17]: 0.702 h
Kd [18]: 0.0308 nM
T1/2 [18]: 13.9 h
Kd [19]: 0.114 nM
T1/2 [19]: 2.12 h
Kd [20]: 0.346 nM
T1/2 [20]: 2.73 h
T1/2 [21]: 1.92 h
B2: H1H744N (antibody, V domains shown)
VH: QVQLVQSGVEVKKPGASVKVSCKTSGYTFSNNGFSWVRQAPGQGLEWLGWISGYNGNTNYAQKFQGRVTMTTDTSTSTAYMELRTLRSDDTAVYYCARDQDYSNFHWLDPWGQGTLVTVAS
VL: DIQMTQSPSSVSASVGDRVIITCRASQGLSSWLAWYQQKPGTAPKLLIHSASSLQTGVPSRFSGSGSGTEFALTINSLQPEDFGTYYCQQANSFPLTFGGGTRVEIK
